This experiment addresses actin (skeletal muscle thin filament) (mouse (endogenous in psoas myofibrils)) (UniProt P68134). The experiment in a line: cryo-EM structure.

Consider one substance from publication doi:10.1101/2021.10.06.463400.

Turning to “nebulin (from UniProt E9Q1W3 1-7152) (natural protein)”, the stoichiometry, nebulin simple repeat to actin subunit came out at 1.
